Test results taken from publication PMC11087589, “Molecular basis of bacterial DSR2 anti-phage defense and viral immune evasion” (Nature Communications, 2024).

B4: Phage tail tube protein from Siphoviridae SPR, His6-SUMO-tagged (natural protein, Siphoviridae SPR (phage))
chain: MKTVIQDTADVYFKRKSDGKLVFTAEAQTASFSQAISEEKLRGGIGNKPLYILKSEKEINLTVKNAFFDLEWLAMTQGETIQEETKVKVFDREHGLIVDDTNKVTLKGKPVSDVTFYNKKGLTYKIAVSTDGTYTIPTAFAAAKDKLTAVYQIEKVGRRLAIKASKFSERYEVEYRTIAYNPDTEEVYSDIYIQFPNVSPSGEFEMSLENGNALAPEIKFEALADTDTDEMAVVIEASRDENTAAPVEDTTGSTQSSDLGGTTE
notes: Purified alone it is a hexamer and filaments of hexamers; in the complex with DSR2^H171A it is a monomer at each corner (4:4); The methods say that His6-SUMO-Tube was purified directly, without removal of the tag; also called His6-SUMO-Tube; HisSUMO-Tube; source: E. coli BL21(DE3); not shown: His6, N-terminal, kept; SUMO, N-terminal, kept

What was measured:
[1] = target: DSAD1 (DSR anti-defense 1) from Siphoviridae SPbeta, His6-SUMO-tagged, co-expressed with DSR2 (Siphoviridae SPbeta (phage)) (UniProt Q796A8); test: cryo-EM structure; DSR2-DSAD1 complex co-expressed and purified, 1.2 mg/mL; 3.49 Å after focus refinement
[2] = target: Bacillus subtilis DSR2, wild type, co-expressed with His6-SUMO-DSAD1 (Bacillus subtilis); test: as above
[3] = target: the molecule itself; test: cryo-EM structure; apo DSR2 tetramer, 1.5 mg/mL, 4.15 Å after focus refinement
[4] = target: the molecule itself; test: SEC; oligomeric state of purified DSR2, its mutants and the DSR2^H171A-Tube complex; Superdex 200 Increase 10/300 GL, 25 mM Tris-HCl pH 7.5, 150 mM NaCl
[5] = target: B4; test: cryo-EM structure; DSR2^H171A-Tube complex co-expressed and purified, 2 mg/mL, 1 mM NAD+ added; 3.58 Å, local refinement 3.08 Å; settings: both partners purified
[6] = target: the molecule itself; test: SEC + other: cryo-EM 2D class averages; purified His6-SUMO-Tube alone

In the case of “Bacillus subtilis DSR2, wild type, co-expressed with His6-SUMO-DSAD1 (enzyme)”, the stoichiometry N (DSAD1:DSR2 (2:4)) [1] is reported as 0.5 and the stoichiometry N [2] is reported as 4.

B1: Bacillus subtilis DSR2 (defense-associated sirtuin 2), wild type, His-tagged, purified alone (enzyme, UniProt P0DXN8 1-1005, looked up)
chain: MVKVDLESKRYGEKLKEVFLMLDNNVVECIKEITESSRNGKLVFFVGAGVSTLSDYPQWWRLVDKYHEELYGSPKKGNYSSDEYLRIPQIFYNVKGEMAFDGILKDFFQVDKPTNPIHDKILAMNPAHVITTNYDNLIDTACWKRGKYFSVISAEEDVANATSSRYLLKVHGDFRKGFKGENVVLKEDDYLNYDQNYPLISNLMKTIIATHTIVFIGYGLGDYNINMLLNWVRKLQKDSFHKPFFIRTDPSPIENETLIYYENKGLRIIDAASLIDSNEYDYLERYSAVMDLLIESQENKFITKDDEVIDYIYGKISPLFALQYIRKIDLKHVFEYDYHFEVNGTVVRHKNKGFGYMERFFELKESCDERSKLSKKQYERFNALFNFFEKNGVICMAKDAGTLNTSIEINSLAYHGKYDVMKKFIEEQSVSIEDDYKKAFFLACLGRWEESYDLYSNIILNSIDESNGCVYYLSQINRYRIYQSITQAVTQFNGLGLLTFGRHYKPFTDEFLARIEREMTNFNIDDLFNGMPFEFQKKYKILEFLSDNQFLYDDTVKLFELTNKVRSEMSEGSYSFGMSSDIVVLLRLYDNLRFLYENCLWSVSFHEFHQYIRNSMSLLIEKAEYERTRDIDELGFSFFGKKSGFFMEYYDFVNISRHFKIDDIKNLERSCSIDKIRFGEQEKIEEYLVGIAEEITKQFSANGMNVVFYTQFISEAKAALYFAKYVKLSEEGLGKIVKALLFYFPERDLDIGKRYVWLERLTKCNELPKSIISIIDDFLVLQAEKHIDQNYSEVSSNGLYSRDYGALIKHFEKNFISKRLSEITLCLTQDKQKQIDFLFKLLPLLSTNAKSHLLSFKSVENINDLMNGIRIGLIDEFTPEHEELIIEYLETRKVNYIVEKEKGIQTFSSNDYMSTFGIWYFLEEINNSKMEEFIGMDDQYDFFVDPENFDYKKFIPSWLKNYNDKLLGKIAGNKHMKHHVIEVLKERVKNSNDKRYLEILMNYFI
notes: Homo-tetramer by cryo-EM and SEC; Cloned into pCDFDuet (BamHI/XhoI); the methods call it His-tagged; also called apo DSR2; apo DSR2 tetramer; source: E. coli BL21(DE3), purified (Ni-NTA, gel filtration on Superdex 200 Increase)
For B1, the “stoichiometry N” value [3] was 4.

B2: DSR2^I259S/Y260G (enzyme, Bacillus subtilis, UniProt P0DXN8 1-1005, looked up)
chain: MVKVDLESKRYGEKLKEVFLMLDNNVVECIKEITESSRNGKLVFFVGAGVSTLSDYPQWWRLVDKYHEELYGSPKKGNYSSDEYLRIPQIFYNVKGEMAFDGILKDFFQVDKPTNPIHDKILAMNPAHVITTNYDNLIDTACWKRGKYFSVISAEEDVANATSSRYLLKVHGDFRKGFKGENVVLKEDDYLNYDQNYPLISNLMKTIIATHTIVFIGYGLGDYNINMLLNWVRKLQKDSFHKPFFIRTDPSPIENETLSGYENKGLRIIDAASLIDSNEYDYLERYSAVMDLLIESQENKFITKDDEVIDYIYGKISPLFALQYIRKIDLKHVFEYDYHFEVNGTVVRHKNKGFGYMERFFELKESCDERSKLSKKQYERFNALFNFFEKNGVICMAKDAGTLNTSIEINSLAYHGKYDVMKKFIEEQSVSIEDDYKKAFFLACLGRWEESYDLYSNIILNSIDESNGCVYYLSQINRYRIYQSITQAVTQFNGLGLLTFGRHYKPFTDEFLARIEREMTNFNIDDLFNGMPFEFQKKYKILEFLSDNQFLYDDTVKLFELTNKVRSEMSEGSYSFGMSSDIVVLLRLYDNLRFLYENCLWSVSFHEFHQYIRNSMSLLIEKAEYERTRDIDELGFSFFGKKSGFFMEYYDFVNISRHFKIDDIKNLERSCSIDKIRFGEQEKIEEYLVGIAEEITKQFSANGMNVVFYTQFISEAKAALYFAKYVKLSEEGLGKIVKALLFYFPERDLDIGKRYVWLERLTKCNELPKSIISIIDDFLVLQAEKHIDQNYSEVSSNGLYSRDYGALIKHFEKNFISKRLSEITLCLTQDKQKQIDFLFKLLPLLSTNAKSHLLSFKSVENINDLMNGIRIGLIDEFTPEHEELIIEYLETRKVNYIVEKEKGIQTFSSNDYMSTFGIWYFLEEINNSKMEEFIGMDDQYDFFVDPENFDYKKFIPSWLKNYNDKLLGKIAGNKHMKHHVIEVLKERVKNSNDKRYLEILMNYFI
notes: Dimer by SEC; also called I259S/Y260G mutant; mutant with disruption at the tetrameric interface; source: E. coli BL21(DE3), purified by a protocol similar to that of the wild type
In the case of B2, the “stoichiometry N” value [4] is reported as 2.

B3: DSR2^H171A, catalytic mutant, co-expressed with His6-SUMO-Tube (enzyme, Bacillus subtilis, UniProt P0DXN8 1-1005, looked up)
chain: MVKVDLESKRYGEKLKEVFLMLDNNVVECIKEITESSRNGKLVFFVGAGVSTLSDYPQWWRLVDKYHEELYGSPKKGNYSSDEYLRIPQIFYNVKGEMAFDGILKDFFQVDKPTNPIHDKILAMNPAHVITTNYDNLIDTACWKRGKYFSVISAEEDVANATSSRYLLKVAGDFRKGFKGENVVLKEDDYLNYDQNYPLISNLMKTIIATHTIVFIGYGLGDYNINMLLNWVRKLQKDSFHKPFFIRTDPSPIENETLIYYENKGLRIIDAASLIDSNEYDYLERYSAVMDLLIESQENKFITKDDEVIDYIYGKISPLFALQYIRKIDLKHVFEYDYHFEVNGTVVRHKNKGFGYMERFFELKESCDERSKLSKKQYERFNALFNFFEKNGVICMAKDAGTLNTSIEINSLAYHGKYDVMKKFIEEQSVSIEDDYKKAFFLACLGRWEESYDLYSNIILNSIDESNGCVYYLSQINRYRIYQSITQAVTQFNGLGLLTFGRHYKPFTDEFLARIEREMTNFNIDDLFNGMPFEFQKKYKILEFLSDNQFLYDDTVKLFELTNKVRSEMSEGSYSFGMSSDIVVLLRLYDNLRFLYENCLWSVSFHEFHQYIRNSMSLLIEKAEYERTRDIDELGFSFFGKKSGFFMEYYDFVNISRHFKIDDIKNLERSCSIDKIRFGEQEKIEEYLVGIAEEITKQFSANGMNVVFYTQFISEAKAALYFAKYVKLSEEGLGKIVKALLFYFPERDLDIGKRYVWLERLTKCNELPKSIISIIDDFLVLQAEKHIDQNYSEVSSNGLYSRDYGALIKHFEKNFISKRLSEITLCLTQDKQKQIDFLFKLLPLLSTNAKSHLLSFKSVENINDLMNGIRIGLIDEFTPEHEELIIEYLETRKVNYIVEKEKGIQTFSSNDYMSTFGIWYFLEEINNSKMEEFIGMDDQYDFFVDPENFDYKKFIPSWLKNYNDKLLGKIAGNKHMKHHVIEVLKERVKNSNDKRYLEILMNYFI
notes: source: E. coli BL21(DE3), co-expressed with His6-SUMO-Tube; in lysate (pull-down) and purified as the complex (Ni-NTA, Hitrap Q, gel filtration)
In the case of B3, the “stoichiometry N” value [5] is reported as 1 DSR2:Tube (4:4) and the “stoichiometry N” value [4] is reported as 4.

In the case of B4, the “stoichiometry N” value [6] is reported as 6.
